Experimental findings from patent US20220088193A1 (AGONOX, published 2022) are described below.

Test [1] has as its target T1, human CD55 (human, UniProt P08174 35-353, limits assumed).
T1 construct: also called Decay-Accelerating Factor; DAF
T1 sequence (looked up): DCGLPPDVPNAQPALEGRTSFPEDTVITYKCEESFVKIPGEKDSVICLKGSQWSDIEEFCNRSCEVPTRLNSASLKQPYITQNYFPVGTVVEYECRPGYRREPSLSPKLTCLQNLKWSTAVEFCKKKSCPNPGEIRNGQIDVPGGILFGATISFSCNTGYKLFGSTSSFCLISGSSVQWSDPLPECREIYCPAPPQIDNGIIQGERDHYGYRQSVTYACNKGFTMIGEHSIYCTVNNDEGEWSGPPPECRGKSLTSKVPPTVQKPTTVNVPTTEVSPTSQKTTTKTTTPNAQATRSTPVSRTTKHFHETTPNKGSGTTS
Kind of test: ELISA on human CD55, HRP-anti-mouse secondary, A450; left panel 'Binding to human CD55 by ELISA', EC50 table below the graph.
From the text: (§1) EC₅₀ values were obtained by fitting to a sigmoid non-linear equation, using PRISM. These human antibodies contained mouse IgG2A Fc domains for use in in vivo mouse tumor models and were detected by HRP-anti-mouse secondary antibodies.
as §1

The target of test [2] is T2, mouse CD55 (mouse, UniProt Q61475 35-362, limits assumed).
T2 sequence (looked up): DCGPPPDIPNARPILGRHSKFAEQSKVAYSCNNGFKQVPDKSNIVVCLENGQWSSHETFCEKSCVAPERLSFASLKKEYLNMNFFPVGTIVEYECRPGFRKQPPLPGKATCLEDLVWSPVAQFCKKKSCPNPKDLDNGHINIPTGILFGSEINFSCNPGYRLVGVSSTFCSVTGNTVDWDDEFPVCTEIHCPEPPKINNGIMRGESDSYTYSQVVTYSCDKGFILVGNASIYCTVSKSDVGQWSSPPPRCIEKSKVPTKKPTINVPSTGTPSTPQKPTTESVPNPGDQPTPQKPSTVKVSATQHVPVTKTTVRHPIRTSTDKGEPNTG
Briefly: ELISA on mouse CD55, HRP-anti-mouse secondary, A450; right panel 'Binding to mouse CD55 by ELISA', EC50 table below the graph.
From the text: as §1, §1
In general terms: An ELISA detects its analyte on a solid surface through an enzyme-linked reagent.

Test [3] deals with T1, human CD55. Kind of test: library screen, species specificity summary.
The target of test [4] is T3, Plate-bound CD55 (Homo sapiens (Human), UniProt P08174 35-353).
T3 sequence: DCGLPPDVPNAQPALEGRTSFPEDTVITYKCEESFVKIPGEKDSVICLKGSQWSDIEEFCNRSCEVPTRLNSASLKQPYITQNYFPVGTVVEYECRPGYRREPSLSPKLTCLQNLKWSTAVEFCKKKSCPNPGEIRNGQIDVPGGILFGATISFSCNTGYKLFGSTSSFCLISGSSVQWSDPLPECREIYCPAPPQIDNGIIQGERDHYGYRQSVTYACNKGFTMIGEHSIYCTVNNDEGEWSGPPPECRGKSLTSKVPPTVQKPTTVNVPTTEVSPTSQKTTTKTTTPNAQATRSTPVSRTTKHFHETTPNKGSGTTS
Briefly: competition ELISA on plate-bound CD55, streptavidin-HRP, A450; competitor antibody: None. On the procedure:
(§2) FIG. 3: Competition ELISA data for comparing the epitopes of the mouse+human CD55 binding antibodies.
(§3) Comparison of the epitopes of the mouse+human CD55-binding antibodies was performed by competition ELISA.

Test [5] deals with T3, Plate-bound CD55. Kind of test: competition ELISA on plate-bound CD55, streptavidin-HRP, A450; plate pre-incubated with unlabeled competitor P5-4 at 1.0 ug/ml. As for the experimental part:
as §2, §3

Test [6] addresses T3, Plate-bound CD55. Briefly: competition ELISA on plate-bound CD55, streptavidin-HRP, A450; plate pre-incubated with unlabeled competitor P5-1J at 1.0 ug/ml. On the procedure:
as §2, §3

The target in test [7] is T3, Plate-bound CD55. Briefly: competition ELISA; plate-bound CD55 pre-incubated with the unlabeled competitor P5-1J, washed, biotinylated P5-1J titrated, Streptavidin-HRP. As for the experimental part: as §2, §3
Test [8] concerns the target T3, Plate-bound CD55. Kind of test: competition ELISA on plate-bound CD55, streptavidin-HRP, A450; plate pre-incubated with unlabeled competitor P5-2-2A at 1.0 ug/ml. On the procedure:
as §2, §3

Test [9] deals with T3, Plate-bound CD55. Briefly: competition ELISA; plate-bound CD55 pre-incubated with the unlabeled competitor P5-2-2A, washed, biotinylated P5-1J titrated, Streptavidin-HRP. As for the experimental part:
as §2, §3

Test [10] has as its target T3, Plate-bound CD55. Briefly: competition ELISA on plate-bound CD55, streptavidin-HRP, A450; plate pre-incubated with control competitor mIgG2A at 1.0 ug/ml (curve lies on that of None). As for the experimental part: as §2, §3
Test [11] addresses T2, mouse CD55. Briefly: ELISA on mouse CD55, HRP-anti-mouse secondary, A450; right panel 'Binding to mouse CD55 by ELISA'.
From the text: as §1, §1

B1: P5-1 with mouse IgG2A Fc domains (antibody, V domains shown)
VH: EVQLVESGGGLVQPGGSLRLSCAASGFTFSSYYIHWVRQAPGKGLEWVAAISSSSGSTYYADSVKGRFTISADTSKNTAYLQMNSLRAEDTAVYYCARERYFYGDFVFDYWGQGTLVTVSS
VL: DIQMTQSPSSLSASVGDRVTITCRASQSVSSAVAWYQQKPGKAPKLLIYSASSLYSGVPSRFSGSRSGTDFTLTISSLQPEDFATYYCQQYYSSPLTFGQGTKVEIKR
notes: not shown: mouse IgG2A Fc domain
A word on the EC50: it is the midpoint of the concentration-response curve. A high value points to lower potency in that assay. B1: the EC50 in test [1] worked out at 4.27 ng/mL; in test [2], 3.46 ng/mL.

B2: P5-3 (antibody, V domains shown)
VH: EVQLVESGGGLVQPGGSLRLSCAASGFTFSSYYIHWVRQAPGKGLEWVAAISSSSGSTYYADSVKGRFTISADTSKNTAYLQMNSLRAEDTAVYYCAREDWHRYERRFYEGFDYWGQGTLVTVSS
VL: DIQMTQSPSSLSASVGDRVTITCRASQSVSSAVAWYQQKPGKAPKLLIYSASSLYSGVPSRFSGSRSGTDFTLTISSLQPEDFATYYCQQYYSSPLTFGQGTKVEIKR
Consider B2, for which the binding result in test [3] was “binds”.

B3: P5-2 (antibody, V domains shown)
VH: EVQLVESGGGLVQPGGSLRLSCAASGFTFSSYYIHWVRQAPGKGLEWVAAISSSSGSTYYADSVKGRFTISADTSKNTAYLQMNSLRAEDTAVYYCAREVRIHGDFVLDYWGQGTLVTVSS
VL: DIQMTQSPSSLSASVGDRVTITCRASQSVSSAVAWYQQKPGKAPKLLIYSASSLYSGVPSRFSGSRSGTDFTLTISSLQPEDFATYYCQQYYSSPLTFGQGTKVEIKR
notes: also called parent Ab P5-2
On to B3, for which the binding result in test [3] is listed as “binds”.

B4: P5-1J (antibody, V domains shown)
VH: EVQLVESGGGLVQPGGSLRLSCAASGFTFSHHYIHWVRQAPGKGLEWVAAISTGGGTTYYADSVKGRFTISADTSKNTAYLQMNSLRAEDTAVYYCARERYFNGDFIYDYWGQGTLVTVSS
VL: DIQMTQSPSSLSASVGDRVTITCRASQSVSSAVAWYQQKPGKAPKLLIYSASSLYSGVPSRFSGSRSGTDFTLTISSLQPEDFATYYCQQYYSTPLTFGQGTKVEIKR
notes: also called biotinylated P5-1J; unlabeled P5-1J
As to B4, the EC50 in test [4] was found to be 2.13 ng/mL; in [5] it was 24.1 ng/mL; in [6], 108 ng/mL; in [8], 21.4 ng/mL; in [10] it was 1.96 ng/mL. Also, the “fold shift in EC50” value in test [7] was 100 fold; in test [9] it was 20 fold.

B5: P5-1J with mouse IgG2A Fc domains (antibody, V domains shown)
VH: EVQLVESGGGLVQPGGSLRLSCAASGFTFSHHYIHWVRQAPGKGLEWVAAISTGGGTTYYADSVKGRFTISADTSKNTAYLQMNSLRAEDTAVYYCARERYFNGDFIYDYWGQGTLVTVSS
VL: DIQMTQSPSSLSASVGDRVTITCRASQSVSSAVAWYQQKPGKAPKLLIYSASSLYSGVPSRFSGSRSGTDFTLTISSLQPEDFATYYCQQYYSTPLTFGQGTKVEIKR
notes: as for B1
Regarding B5, the EC50 in test [1] was 4.07 ng/mL; in [2] it was 3.21 ng/mL.

B6: P5-4 with mouse IgG2A Fc domains (antibody, V domains shown)
VH: EVQLVESGGGLVQPGGSLRLSCAASGFTFSSYYIHWVRQAPGKGLEWVAAISSSSGSTYYADSVKGRFTISADTSKNTAYLQMNSLRAEDTAVYYCAREDYYWGDFVFDYWGQGTLVTVSS
VL: DIQMTQSPSSLSASVGDRVTITCRASQSVSSAVAWYQQKPGKAPKLLIYSASSLYSGVPSRFSGSRSGTDFTLTISSLQPEDFATYYCQQYYSSPLTFGQGTKVEIKR
notes: as for B1
B6: the half-maximal effective concentration (EC50) in [1] amounted to 3.68 ng/mL; in test [2], 22.7 ng/mL.

B7: P5-2-2A with mouse IgG2A Fc domains (antibody, V domains shown)
VH: EVQLVESGGGLVQPGGSLRLSCAASGFTFSSYYIHWVRQAPGKGLEWVAAISSSSGSTYYADSVKGRFTISADTSKNTAYLQMNSLRAEDTAVYYCAREARFHGDFILDYWGQGTLVTVSS
VL: DIQMTQSPSSLSASVGDRVTITCRASQSVSSAVAWYQQKPGKAPKLLIYSASSLYSGVPSRFSGSRSGTDFTLTISSLQPEDFATYYCQQYYITPLTFGQGTKVEIKR
notes: as for B1
One may read the EC50 (read off the curve) as the concentration at which the effect is half-maximal. A lower EC50 (read off the curve) goes with greater potency. On to B7, for which the “EC50 (read off the curve)” value in [11] is around 6 ng/mL. Moreover, a half-maximal response in test [1] (EC50) required 4.72 ng/mL.
